In assay [1] the target is GFP-Cdc27 (Drosophila melanogaster). The assay can be described thus: co-IP; anti-GFP immunoprecipitation with GFP-Trap-A beads from D. mel-2 cell lysates, 2 h at 4 °C; 10 mM Tris-HCl pH 7.5, 150 mM NaCl, 0.5 mM EDTA, NP40; immunoblot; band intensities quantified in ImageJ. In general terms: In western blotting, separated proteins are transferred to a membrane and probed.

Assay [2] deals with GFP-Spd2 (Drosophila melanogaster). The assay is described as above.

Regarding “Spd2 (endogenous) (from UniProt Q9VV79 1-1146) (natural protein)”, the co-IP efficiency in assay [1] was 2.7e-07. The molecule “Fzr (endogenous) (from UniProt O18402 1-478) (natural protein)” had a precipitation efficiency (percent of input co-precipitated) in assay [2] of 14.5%. For the molecule Cdc27 (endogenous) (natural protein), the precipitation efficiency (percent of input co-precipitated) in assay [2] came out at 4.55%.

B1: Fzy (endogenous) (natural protein)
chain: MSQFNFVSDLQNALIMDGETRGPAPRWKKKLEASLNGSVNTTRSVLSVSYNTSFSGVQAPTKTPGKSSEGKTKKSNTTPSKTPGGGDRFIPNRAATNFELAHFLVNKDSGDKSDEENDKATSSNSNESNVQASAHKGDRQKLISEVAQVGDSKGGRILCYQNKAPAAPETHNNPLKVVYSIKTPISTKSGSRYIPTTSERILDAPDFINDYYLNLMDWSADNIVAVALGSCVYLWNAQTGNIEQLTEFEEGDYAGSLSWIQEGQILAIGNSTGAVELWDCSKVKRLRVMDGHSARVGSLAWNSFLVSSGSRDGTIVHHDVRAREHKLSTLSGHTQEVCGLKWSTDFKYLASGGNDNLVNVWSAASGGVGTATDPLHKFNDHQAAVRALAWCPWQPSTLASGGGTADRCIKFWNVNNGTLMKSVDSKSQVCSLLFSRHYKELISAHGFANNQLTIWKYPTMVKQADLTGHTSRVLQMAMSPDGSTVISAGADETLRLWNCFAPDPLASKKAVSTSKGKQSVFRQSIR
As for B1, the precipitation efficiency (percent of input co-precipitated) in assay [2] is 2.43%.

Values taken from paper PMC5007356.
